This data set is described as follows: soluble on expression in E. coli; label from the status in PepcDB or PDB records.
As to “MSLVLVKAMARIVMKFGGTSVANLERIHNVARHVKREVDAGHEVAVVVSAMSGKTNELVDWVQNAAKVAGTNAASFYDAREYDAVVASGEQVTSGLLAITLQSMGINARSWQGWQIPIRTDNAHGAARILEIDGSDIVHRMGEGQVAVVAGFQGIGPDNRIATLGRGGSDTSAVAIAAAVKADRCDIYTDVDGVYTTDPRIEPKARRMKKIAFEEMLEMASLGAKVLQVRSVELAMVHKVRTFVRSSFEDPDAPGMGDLINPPGTLICDEDEIVEQEVVTGIAYAKDEAQISLRRVADRPGVSAAIFGPLAEAHINVDMIVQNISEDGSRTDMTFTVPSGDVAKALRVLDENKGQIGFDVAQNETGLAKVSVIGIGMRSHAGVAASAFKALAEKNINIKAITTSEIKISILIDGAYAELAVRTLHSAYGLDKAEGHHHHHH”, the “soluble on expression in E. coli” value is “not soluble”.

For “MSLVMDYEGFKKEIFKLTGIDLGSYKEKQMKRRLDSLISKNNFSGYKTYIEALKTDKKLFNEFINYMTINVSEFYRNPEQWEKLKNIILPSLLEKNSNPKIWSAACSSGDEPYTLVMILNEFLPLNKIKIIATDIDAEILVKAKNGLYTEKSIANLPKKYVEKYFKVDGDVYAINQEVKNCVEFSKHNLLADPYPKNCDLIVCRNVLIYFTEEAKAEIYKKFNRALKTGGVLFVGSTEQIILYNLYNFKPIQTFFYQKEKEGHHHHHH”, the “soluble on expression in E. coli” value is on record as “soluble”.

“MSLVPQGGPVLCRDEMEEWSASEAMLFEEALEKYGKDFNDIRQDFLPWKSLASIVQFYYMWKTTDRYIQQKRLKAAEAEGHHHHHH”: the “soluble on expression in E. coli” value is on record as “not soluble”.

For “MSLVTQQALPPVVSSAASPSPQASAPLPTDKTAIAIVLQGFGYSDALTYDVLSRIPAPVAVGISPYVSNISDIIARAHASHREVYVTLPMQSAHPERVDEGPHALGYGNSAADDQRELEWCLSRAAGAEGLTDASENGDDQPGGGYATSPDFSPIASAISSKGLLYLAGSAQDGRRTRGMTATAWIDGDTDAATLDSRLAALLPQDGKPAKILLMVGPITPVMIDRLANWLKGPAAQNFVVVPPSAFADSGISNDQAANLSPSNPVAPLEGHHHHHH”, the “soluble on expression in E. coli” value is “soluble”.

For “MSLVTSMTFYETRFPEDISYGSTGGPEFTTSIIETNNGYEYRKINISYPRNKYNIMYSVKSEEELLKLINFFYIHKGKAIGFRFKDWADYKAIQQKIGIGDNHQTTFQLVKTYKVDQFSYIRTITKPVINTVKIYYNDSIKNNGFSVNLSNGQIKFDIAPKDGIEIFADYEFDVPVRFDSDYLPYSIDNYKQYNCNNITLIEVKTEGHHHHHH”, the “soluble on expression in E. coli” value is given as “not soluble”.

Take “MSLVVFLLLKSQFLYGEDFKLRKGTLIIEEGIIKGFTDEHNEREVIEFKGLVIPSLINAHTHIADNSIKDIGINKTLDELVKPPNGLKHRYLTECSDDLLAEGMKLGLGDMREHGIKYFCDFRENGVRGISLLNKALKCYDYPKAIILGRPIKVDKDEIEEVLKVSNGLGLSGANEFKDDELKLIFKIFKKFKEKDDKKLFAIHAAEHRGAVEYSLNKYGMTEVERLIDLKIKPDFIVHGTHLTDNDLELLKENNIPVVACVRANLSFNVGMPKLNELNDNLLVGIGTDNFMANSPSIFKEMDFIYKLYHIEPKDILRMATINNAKILKLENVGLVDEGFKAVFTFIKPTNAILFSKNIIASVVTRCEKGDVVDFSLMENEEEGHHHHHH”: the “soluble on expression in E. coli” value is “soluble”.

Consider “MSLWYNRAMKHFDTIVIGGGPAGMMATISSSFYGQKTLLIEKNRKLGKKLAGTGGGRCNVTNNGSLDNLLAGIPGNGRFLYSVFSQFDNHDIINFFTENGVKLKVEDHGRVFPASDKSRTIIEALEKKITELGGQVATQIEIVSVKKVDDQFVLKSADQTFTCEKLIVTTGGKSYPSTGSTGFGHEIARHFKHTITDLEAAESPLLTDFPHKALQGISLDDVTLSYGKHVITHDLLFTHFGLSGPAALRMSSFVKGGEVLSLDVLPQLSEKDLVTFLEENREKSLKNALKTLLPERLAEFFVQGYPEKVKQLTEKEREQLVQSIKELKIPVTGKMSLAKSFVTKGGVSLKEINPKTLESKLVPGLHFAGEVMDINAHTGGFNITSALCTGWVAGSLHYDEGHHHHHH”, for which the “soluble on expression in E. coli” value was “soluble”.

Consider “MSLYDTILFPTDGSNAAESVLEYALQIASEHEATIHILNVADTGRDSVTTIRGEVIDVLETEGERIVAEATQYAKDEGVPVVSAVLQGDPHKTIVDYSQQSDSDCIVMPTHGQRGIQRILLGSVTERVINTAEVPVIAVNPDRDRPLVYPPQHVLVPTDGSRGADLALTEGIAVARATDATLHLLHVVETGGLGPDARSVLKEGELTERANEIMAGATEKIDDTSLDTVTSVIEHGDPSKVICDYIDENEVDLAVMGTHGQTDFSRYVMGGVSAKLVRKSPVPVTWVREPESEGHHHHHH”, for which the “soluble on expression in E. coli” value is reported as “soluble”.

As to “MSLYENKKVVAIGGGHGLGRMLAALKVFGSNATGIVTTTDNGGSTGRIRHCQGGIAWGDTRNCINQLITEPSISSMMFEYRFKGAGELNGHNLGNLMLTALDNLSVRPLDAINLIRNMLKVDVNILPMSEHPSDLAALAMDGKWVTGETSVDEMTQDLRRLDLAPEVPATKEAVTAIQDADCVILGPGSFLTSVMPPLLLPELGKAIARNQTAKVIFVENLSPEYGPAGRMSLEQKLEWCERACQGRKIDVVLGHHPHPELEQRWNFVTRDLASANRDWRHDRQKLRQAIEEQLMNLEHHHHHH”, the “soluble on expression in E. coli” value was “soluble”.

Regarding “MSLYEWLNALPKAELHLHLEGTLEPELLFALAERNRIALPWNDVETLRKAYAFNNLQEFLDLYYAGADVLRTEQDFYDLTWAYLQKCKAQNVVHVEPFFDPQTHTDRGIPFEVVLAGIRAALRDGEKLLGIRHGLILSFLRHLSEEQAQKTLDQALPFRDAFIAVGLDSSEVGHPPSKFQRVFDRARSEGFLTVAHAGEEGPPEYIWEALDLLKVERIDHGVRAFEDERLMRRLIDEQIPLTVCPLSNTKLCVFDDMSQHTILDMLERGVKVTVNSDDPAYFGGYVTENFHALQQSLGMTEEQARRLAQNSLDARLVKEGHHHHHH”, the “soluble on expression in E. coli” value is given as “soluble”.

Take “MSLYFLLQKVILPNIDLCTEEQLYFRTQGGKYNYTSRNLLVPRHKVAYFDTFFNAFSIKKWKKYTTLTSLFLRVNIIGRGTITVRHKENGVIRVLKQIDFKSSCNISDEIEIDISKINFGYIYVEWQSDEDSVLNGFELLTKDHVSKSSMALVITTYNRKEAVTKTINRINKTLLTQSEFKDRFKLIVVNNGEAINHPSGNGIIVINNENLGGSGGFMRGLIEAGKINDVKHVIFMDDDGSCEIESICRTHAFLLMAKDKNTVVTGCMLFEDNPAIIHESGAIWHRDFLHYPDKHYLDAREIDSLDTFDNERKIGYGGWWFFAFNINAIEYYSFPFFVRGDDLLFGYMHKKHNIVTLNGVASWQMDFERKISVLNSYLNFRTVAVPALISKREGHHHHHH”: the “soluble on expression in E. coli” value was “not soluble”.

With “MSLYKADMLGDAYEYLIKQFADDAGKKGGEFYTPKAVVQLVVELIDPRPGHSVYDPTCGSGGMLVESAHHVSGLPDGTLMGKPNVLLYGQEKNLGTWAIAKLNLYLHNMHASIERGDTLVEPKHLDGDYLKTFDRVIANPPFSAKSWWTPLELSNENEQENGKKVKAPNYKQVSDPYGRLVYGVPPRGYADLAFAQHMLASLKADGRMGVILPHGVLFRSGEEGKIREGLLFGTGAASGNQPGDVIEAIVGLPSALFYNTGIPACVLILNKQKPSALKDKVIIIDGSRDYLEGKAQNSLHAEDILRIVSTHKAAFEQQVEVENYCRLVTLDEIRSNDGNLNIVRYIDNGESDEVVNVAATLAHMATLAKEEAQIDQRLNRYLMELGLLETGEGHHHHHH”, the “soluble on expression in E. coli” value is listed as “not soluble”.

For “MSLYKVYGDYQSGNCYKVKLMLSLLGRPYEWHPVDILKGETETPEFLAMNPNGKVPVLELEDGSYLWESNAILNYLADGSEFLPSEPRLRTQVLQWQFFEQYSHEPYIAVARFIQFYLGLPDERLDEYRKLHKGGYKALKVMERQLQMTPYLVGEQYSIADVALYAYTHVAQQGGFDLADYPAVRAWLERVSSHPRHVPMVGEGHHHHHH”, the “soluble on expression in E. coli” value was “soluble”.

On to “MSLYMTIGRIFDLSVGKYPNKEALVEPEKNIRWTYKQWDEQINKTAHALLEEGVRKGDTVSVYLYNCHEFVNVYLACAKIGAIFNPINFRLKAKEVSYILQDASSKVVVFEKAVESTVAIIERDFPNTSFWSIENDKPSYASSYHEKVNEASSEKVNIEIDEMDYCSMLYTSGTTGHPKGVLHRHREMAEHSMICTYFLKYNRDSVGLVVAPLYHCGELNAGIIPRIQVGGKNVILHHFDTETVLHTIQEEKITTFFAAPTMWNMLLQKDLAQYDLTSMKIGIYGGAAMAPALVKECKERLYIDLVQIYGMTEMGPVVAFLVEEDQITKAGSAGTPCFSHEVRIVKPNEDAPAEPDDVLPPYEVGEIILRGPTMMAGYHNREEANKKSMYKGWYHSGDLGYFDKDGYLFVADRVDDMVISGGVNIYPREIEDFLHSHPGILDVAVLGEPDELWGERVVAVIVKKDETITEADLETYCKESDELADYKRPRHYLFVDELPRNASGKLQKFVLRESLKGAKEGHHHHHH”, for which the “soluble on expression in E. coli” value was “soluble”.

In the case of “MSLYPKAYIDYLVEFHATRDYFECHEILEEYWKEDPPKKRKRYWVGFIQLAVALYHHRRQNTAGAKRLMANSIRILQAEHRAVEDLGLDHGRLLELMQSVYEQIETVSAYKSIILPIKDEKLEEACRIECRKKKYTWGQPSALSNIFLIDKHRLRDRTDVIREREKEIERRKKSRDEGHHHHHH”, the “soluble on expression in E. coli” value is “soluble”.

Regarding “MSLYSDSVTHCLQTCNSPYQKSEKDHRRLSLFAARLFLYNLALFNQFDISMTQSIWRSVTPQFEQFNKVFENYPNLAPISLIEIQPRLTSALEQFVHLKGFSRILLINAPDNSIYRSLFKDALLEQDLDVPVVSTETLDISEILGQVKVEHGGLVHKTSGYLEQANGGYLIVSANLLLANPRYWPTVKAAVLGETVSPINCDPKSPLPNRLGSSYDVKLIVVGDRTQLGDLDFLDADIHSGLCLFSELELDLKIEEETIEDYLGYLRWLCEQYNLPSLTCSAIQSLMTAGARYTEDQYYAPLCLMWHRALLEEARLESEEPLIDAEHIEIALDKRYLRESYLPERALDDILDGQVIIETQGEQVGQVNGLTVIEVTGHPMPYGEPARISCVIHFGDGDIADVERKVELGGNLHAKGMMIMQAFVSSALNLDGSLPFSASIVFEQSYSEVDGDSASLAELCSLVSALSEYPIDQQIAVTGAVDQFGRVQAVGGLNEKIEGFYRVCCHQGLTGEQGVILPSSNLKHLALHKSVVESIKNGEFNIWPVSTVDEAIPLLMGKPFRGEDEGHHHHHH”, the “soluble on expression in E. coli” value is “not soluble”.

“MSLYTASQLLDKINSHISDIRFTRTPAGLYDPIKYVLSMGGKRIRPVLMLMAYNLYKEDVSSIYDPATAIEVYHNYTLLHDDLMDRADMRRGKTTVHKVWNDNTAILSGDAMLVLAYQYMAASSSEHLKEVMDLFSLTALEICEGQQMDMNFESREDVKEEEYLEMIRLKTAVLLAASLKIGAILGGASPEDAENLYDFGMQIGVAFQLQDDLLDVYGDPAVFGKNIGGDILCNKKTYMLIKALERADRDQLEGLNHWLSATSFCPEEKISAVTELYTQIGIKAVCENKMREYYTRAMTSLGAVSVIEDKKSELKKLMKHLMYREGHHHHHH”: the “soluble on expression in E. coli” value was “soluble”.

The values above are taken from the DeepSol protein solubility set.
